Experimental data as given in article doi:10.1101/2021.01.26.428356, “Sequence signatures of two IGHV3-53/3-66 public clonotypes to SARS-CoV-2 receptor binding domain” (bioRxiv, 2021).

B1: COVA2-20 Fab, wild type (Y58) (Fab, V domains shown)
VH: EVQLVESGGGLIQPGGSLRLSCAASGFTVSSNYMSWVRQAPGKGLEWVSVIYSGGSTYYADSVKGRFTISRDNSKNTLYLQMNSLRAEDTAVYYCASPLLLTPPDYYYYMDVWGKGTMVTVSS
VL: DVVMTQSPSSLSVSVGDRVTITCRASQGIRNDLGWYQQKPGKAPKRLIYAASSLQSGVPSRFSGSGSGTEFTLTISSLQPEDFATYYCLQHNSYLWTFGQGTKLEIK
B2: COV107-23 Fab, wild type (F58) (Fab, V domains shown)
VH: EVQLVESGGGLIQPGGSLRLSCAASGFTVSSNYMSWVRQAPGKGLEWVSVIYSGGSTFYADSVKGRFTISRDNSKNTLYLQMNSLRAEDTAVYYCARDLGTGLFDYWGQGTLVTVSS
VL: DIQLTQSPSFLSASVGDRVTITCRASQGISSYLAWYQQKPGKAPKLLIYAASTLQSGVPSRFSGSGSGTEFTLTISSLQPEDFATYYCQQLDSYPPGTFGPGTKVDIK
notes: also called WT COV107-23; clonotype 1 antibody; source: Expi293F, transiently co-transfected, purified (CaptureSelect CH1-XL column)

Biological target: T1, Fc-tagged receptor-binding domain (RBD) of the SARS-CoV-2 spike (S) protein (SARS-CoV-2, Wuhan-Hu-1 (GenBank …, UniProt P0DTC2))
T1 construct: also called SARS-CoV-2 RBD; SARS-CoV-2 S RBD-Fc; not shown: Fc, C-terminal, kept
Test: BLI; Octet Red96e; Fc-tagged RBD loaded onto the biosensor (streptavidin biosensors as printed), Fab in solution; 1x PBS pH 7.4, 0.01% w/v BSA, 0.002% v/v Tween 20; 60 s association, 60 s dissociation; 1:1 binding model
Conditions: both partners purified

Row | Binder | binding result | Kd [nM]
1 | B1 | binds | 
2 | B2 |  | 1
